Measured values reported in publication PMC2908078, “The YEATS family member GAS41 interacts with the general transcription factor TFIIF” (BMC Molecular Biology, 2010).
One block for each binder: values may come before it.

Biological target: T1, His-GAS41 (human, UniProt O95619 1-227)
T1 construct: source: E. coli M15 [pRep4], pQE30, purified (Ni-NTA)
Assay: pull-down; GST-RAP30 full length or fragments d1-d3 on glutathione-sepharose 4B as bait, purified His-GAS41 (10-20 ug) as prey, over night at 4°C; immunoblot
Conditions: both partners purified

T1 sequence (O95619 whole entry): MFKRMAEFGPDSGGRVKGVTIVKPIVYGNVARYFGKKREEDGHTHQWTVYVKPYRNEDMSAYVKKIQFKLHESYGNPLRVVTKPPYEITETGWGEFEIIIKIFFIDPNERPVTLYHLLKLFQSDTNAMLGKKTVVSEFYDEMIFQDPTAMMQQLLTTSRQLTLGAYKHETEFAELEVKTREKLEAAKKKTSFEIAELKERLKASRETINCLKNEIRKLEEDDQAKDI

binding result: binds
B1: GST-RAP30 d2 (RAP74 binding domain and polymerase binding domain, aa1-169) (domain or fragment, human, UniProt P13984 1-169, looked up)
chain: MAERGELDLTGAKQNTGVWLVKVPKYLSQQWAKASGRGEVGKLRIAKTQGRTEVSFTLNEDLANIHDIGGKPASVSAPREHPFVLQSVGGQTLTVFTESSSDKLSLEGIVVQRAECRPAASENYMRLKRLQIEESSKPVRLSQQLDKVVTTNYKPVANHQYNIEYERKK
notes: source: E. coli BL21 (DE3), pGEX-4T1

binding result: binds
B2: GST-RAP30 d3 (DNA binding site, aa169-249) (domain or fragment, human, UniProt P13984 169-249, looked up)
chain: KKEDGKRARADKQHVLDMLFSAFEKHQYYNLKDLVDITKQPVVYLKEILKEIGVQNVKGIHKNTWELKPEYRHYQGEEKSD
notes: as for B1
